# Columns and labels:
# [1] = target: human CCR2 (full-length, Genbank Accession No. NM-000648) on membranes of Ba/F3-hCCR2 cells (human) (UniProt P41597); assay: competition with 30 pM radioiodinated human MCP1, SPA, Ba/F3-hCCR2 cell membranes
# [2] = target: human CCR2 (full-length, Genbank Accession No. NM-000648) on membranes of Ba/F3-hCCR2 cells (human) (UniProt P41597); assay: competition with radioiodinated human MCP1, SPA, membranes of cells containing CCR2
Substance,IC50 [1] [pM],Ki [1] [pM],fold less potent than unlabeled rhMCP1 [2] [fold]
Recombinant human MCP1 (rhMCP1) (R & D Systems) (from UniProt P13500 24-99) (ligand),183,84.5,
hMCP1-mIg (NH2-human MCP1-Mouse Ig Heavy chain γ1 (hinge-CH2-CH3)-COOH) (Fc fusion),624,288,5 to 12
